# Reference: patent US20240117054A1 (DRAGONFLY THERAPEUTICS, published 2024)
# T1: hFLT3-His fusion protein (human, UniProt P36888 27-541, limits assumed)
# T1 construct: Soluble recombinant antigen used for immunisation, ELISA, SPR and BLI binning; also called recombinant hFLT3 protein; not shown: His tag
# T1 sequence (looked up): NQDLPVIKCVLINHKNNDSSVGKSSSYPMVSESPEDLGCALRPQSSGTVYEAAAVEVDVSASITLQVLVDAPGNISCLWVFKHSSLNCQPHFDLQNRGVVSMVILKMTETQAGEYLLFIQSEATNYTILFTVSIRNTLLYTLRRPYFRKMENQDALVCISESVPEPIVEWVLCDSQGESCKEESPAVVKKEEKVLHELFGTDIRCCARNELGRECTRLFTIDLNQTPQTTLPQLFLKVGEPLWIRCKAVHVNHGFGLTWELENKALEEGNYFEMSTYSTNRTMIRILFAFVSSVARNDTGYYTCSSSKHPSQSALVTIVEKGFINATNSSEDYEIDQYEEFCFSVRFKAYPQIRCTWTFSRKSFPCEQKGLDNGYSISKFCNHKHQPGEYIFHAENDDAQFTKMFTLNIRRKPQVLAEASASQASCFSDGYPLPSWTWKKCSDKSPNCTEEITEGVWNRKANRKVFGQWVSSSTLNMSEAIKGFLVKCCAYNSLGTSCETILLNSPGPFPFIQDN
# T2: human FLT3 (hFLT3) expressed on cells (human, UniProt P36888 27-993)
# T2 construct: whole, on cells; One molecule for all cell lines that carry human FLT3; also called RMA-hFLT3; FLT3 on REH cells
# T2 sequence (looked up): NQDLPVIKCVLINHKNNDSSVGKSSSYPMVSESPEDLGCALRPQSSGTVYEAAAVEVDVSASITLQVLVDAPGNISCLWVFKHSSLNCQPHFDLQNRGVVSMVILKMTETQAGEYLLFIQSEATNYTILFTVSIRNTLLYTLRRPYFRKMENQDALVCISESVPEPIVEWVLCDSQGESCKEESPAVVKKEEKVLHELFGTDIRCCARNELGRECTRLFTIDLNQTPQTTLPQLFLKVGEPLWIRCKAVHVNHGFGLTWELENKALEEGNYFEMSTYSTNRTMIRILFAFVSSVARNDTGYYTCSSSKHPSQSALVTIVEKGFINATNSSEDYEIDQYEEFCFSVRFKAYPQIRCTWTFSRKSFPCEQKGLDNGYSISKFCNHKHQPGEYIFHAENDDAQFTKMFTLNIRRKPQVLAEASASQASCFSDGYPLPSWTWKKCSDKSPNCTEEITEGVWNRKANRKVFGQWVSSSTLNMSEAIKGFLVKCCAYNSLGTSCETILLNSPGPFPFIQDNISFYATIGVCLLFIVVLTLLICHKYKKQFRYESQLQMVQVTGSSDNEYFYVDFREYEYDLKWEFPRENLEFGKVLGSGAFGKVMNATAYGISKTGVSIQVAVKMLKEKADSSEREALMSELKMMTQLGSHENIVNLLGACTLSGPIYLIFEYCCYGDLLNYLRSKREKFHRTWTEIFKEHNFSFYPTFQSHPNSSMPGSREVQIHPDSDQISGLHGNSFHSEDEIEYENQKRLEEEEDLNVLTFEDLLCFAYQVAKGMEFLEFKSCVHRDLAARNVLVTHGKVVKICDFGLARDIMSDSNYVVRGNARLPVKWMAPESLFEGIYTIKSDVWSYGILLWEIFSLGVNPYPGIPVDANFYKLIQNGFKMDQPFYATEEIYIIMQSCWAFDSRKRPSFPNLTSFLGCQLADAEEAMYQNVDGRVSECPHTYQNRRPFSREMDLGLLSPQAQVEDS
# T3: cynomolgus monkey FLT3 (cFLT3) expressed on RMA cells (cynomolgus monkey, UniProt A0A2K5VQ48 27-993)
# T3 construct: whole, on cells; also called RMA-cFLT3; cynomolgus FLT3
# T3 sequence: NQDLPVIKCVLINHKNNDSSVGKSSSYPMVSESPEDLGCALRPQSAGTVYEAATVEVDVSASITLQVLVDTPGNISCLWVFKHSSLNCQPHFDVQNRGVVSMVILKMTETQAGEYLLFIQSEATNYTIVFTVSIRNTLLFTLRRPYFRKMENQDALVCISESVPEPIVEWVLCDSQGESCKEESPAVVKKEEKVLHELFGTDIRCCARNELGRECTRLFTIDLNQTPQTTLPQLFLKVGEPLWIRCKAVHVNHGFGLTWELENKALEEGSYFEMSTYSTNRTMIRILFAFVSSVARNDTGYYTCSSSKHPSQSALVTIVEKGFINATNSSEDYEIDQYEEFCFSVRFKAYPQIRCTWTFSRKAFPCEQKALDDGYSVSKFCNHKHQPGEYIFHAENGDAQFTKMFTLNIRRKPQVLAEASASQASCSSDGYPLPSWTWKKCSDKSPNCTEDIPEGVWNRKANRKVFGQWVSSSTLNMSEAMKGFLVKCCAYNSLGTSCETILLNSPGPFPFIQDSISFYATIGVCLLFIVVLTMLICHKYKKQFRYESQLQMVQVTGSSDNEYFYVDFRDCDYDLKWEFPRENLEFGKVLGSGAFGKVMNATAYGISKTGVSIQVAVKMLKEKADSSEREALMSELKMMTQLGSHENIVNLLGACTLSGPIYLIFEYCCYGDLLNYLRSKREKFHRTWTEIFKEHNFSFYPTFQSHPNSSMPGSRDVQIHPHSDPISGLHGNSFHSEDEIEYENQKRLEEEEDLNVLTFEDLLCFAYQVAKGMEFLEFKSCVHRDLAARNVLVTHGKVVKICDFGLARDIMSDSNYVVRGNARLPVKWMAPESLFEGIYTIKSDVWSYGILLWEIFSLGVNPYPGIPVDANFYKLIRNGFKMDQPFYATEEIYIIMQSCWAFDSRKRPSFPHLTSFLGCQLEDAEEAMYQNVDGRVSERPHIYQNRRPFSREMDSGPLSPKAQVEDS
# How the values were obtained:
# [1] = molecular target: T1, hFLT3-His fusion protein; test: SPR, purified murine subclone mAb, hFLT3-His
# [2] = molecular target: T2, human FLT3 (hFLT3) expressed on cells; test: flow cytometry, purified mAb on RMA-hFLT3 cells
# [3] = molecular target: T3, cynomolgus monkey FLT3 (cFLT3) …; test: flow cytometry, purified mAb on RMA-cFLT3 cells
# [4] = molecular target: T2, human FLT3 (hFLT3) expressed on cells; test: flow cytometry, purified mAb on SEM cells
# [5] = molecular target: T2, human FLT3 (hFLT3) expressed on cells; test: cell-based or functional assay
Binder,Kd [1],koff [1],kon [1],EC50 [2],Max MFI [2],EC50 [3],Max MFI [3],EC50 [4],Max MFI [4],binding result [3],"pFLT3 levels (pFLT3 ELISA, EOL-1 cells) [5]"
"1A2.A3 (antibody, V domains shown, Purified murine mAb from a hybridoma subclone) VH: EVQLQESGPELVKPGASVKISCKASGYSFTGYYIHWVKQSPEESLEWIGEIYPNTGITTYNQKFTAKATLTVDKSSNTAYMQLKSLTSEDSAVYYCTRWGDYYGRDYWGQGTSVTVSS VL: DIVLTQSPASLAVSLGQRATISCRASETVDTHGNSFMHWYQQKPGQPPKLLIYRASNLESGIPARFSGSGSRTDFTLTINPVEADDVATYYCQQSNEDPRTFGGGTKLEIK",8.5 nM,0.00089 s⁻¹,110000 M⁻¹ s⁻¹,0.8 nM,499 MFI,1.82 nM,2830 MFI,5.47 nM,1360 MFI,–,–
"11F4.B9 (antibody, V domains shown, Purified murine mAb from a hybridoma subclone) VH: EVQLQESGPELVKPGASVKISCKASGYSFTGYYIHWVKQGPEKSLEWIGEIIPSTGSTIYNQKFKAKATLTVDKSSSTAYLQLKSLTSEDSAVYYCERWGDYYGRDYWGQGTSVTVSS VL: DIVLTQSPASLAVSLGQRATISCRASESVDIYGNSFMHWYQQKPGQPPKLLIYRASNLESGIPARFSGSGSRTDFTLTINPVEADDVATYYCQQSNEDPRTFGGGTKLEIK",1.7 nM,0.00025 s⁻¹,150000 M⁻¹ s⁻¹,0.53 nM,493 MFI,1.23 nM,2590 MFI,2.43 nM,1140 MFI,–,–
"4H2.E3 (antibody, V domains shown, Purified murine mAb from a hybridoma subclone) VH: EVQLQESGPELVKPGASVKMSCKASGYTFTSYLMHWMKQKPGQGLEWIGYINPYSDGIKYNEKFRDKATLTSDKSSNTAYMELSSLTSEDSAVYYCAHSSGYVGYAMDYWGQGTSVTVSS VL: GIVMTQTTPSVPVTPGESVSISCRSSKSLLHSNGNTYLYWFLQRPGQSPQLLIYRMSNLASGVPDRFSGSGSGTTFTLRISRVEAEDVGVYYCMQHLEYPFTFGSGTKLEIK",17.6 nM,0.001 s⁻¹,57000 M⁻¹ s⁻¹,0.66 nM,696 MFI,1.56 nM,3450 MFI,7.57 nM,1510 MFI,–,–
"12C9.E5 (antibody, V domains shown, Purified murine mAb from a hybridoma subclone) VH: EVQLQESGAELVRPGASVKLSCKASGYIFTDYEIHWVKQTPVHGLEWIGAIDPETGITAYSQKFKGKATLTTDTSSSTAYMEFRSLTSEDSAVYYCTRGGLLYWGQGTSVTVSS VL: DVVMTQTPLSLSVTIGQPASISCKSSQSLLYSDGETYLNWLQQRPGQSPKRLMYQVSKLDPGIPDRFSGSGSETDFTLKISRVEAEDLGIYYCLQGTFYPHTFGGGTKLEIK",18.7 nM,0.00063 s⁻¹,34000 M⁻¹ s⁻¹,–,–,–,–,–,–,no binding,–
"12H10.G7 (antibody, V domains shown, Purified murine mAb from a hybridoma subclone) VH: EVQLQESGPELVKPGASVKMSCKASGYTFTRYVMHWVKQRPGQGLEWIGFINPYNDDTKYNEKFKGKATLTSDKSSSTAYMELSSLTSEDSAVYHCARWRQLGSLDSWGQGTTLTVSS VL: NIVLTQSPASLAVSLGQRATISCRASESVDTYGSSFVHWYQQKPGQPPKLLIYLASNLESGVPARFSGSGSRSDFTLTIDPVEADDAATYYCQQNNEEPWTFGGGTKLEIK",5.4 nM,0.00055 s⁻¹,100000 M⁻¹ s⁻¹,0.36 nM,1140 MFI,0.94 nM,5260 MFI,3.2 nM,2830 MFI,–,–
"FLT3-ligand (ligand, human, UniProt P49771 27-185, looked up) TQDCSFQHSPISSDFAVKIRELSDYLLQDYPVTVASNLQDEELCGGLWRLVLAQRWMERLKTVAGSKMQGLLERVNTEIHFVTKCAFQPPPSCLRFVQTNISRLLQETSEQLVALKPWITRQNFSRCLELQCQPDSSTLPPPWSPRPLEATAPTAPQPP",–,–,–,–,–,–,–,–,–,–,3 fold
"15A11.C8 (antibody, V domains shown, Purified murine mAb from a hybridoma subclone) VH: EVQLQESGGGLVKTGGSRKLSCAASGFTFSDYGMHWVRHTPEKGLEWVVYISSGGNTIFYTDTVKGRFTISRDNAKNTLFLQMTSLRSEDTAVYFCVRQGYYYAMDYWGQGASVTVSS VL: DIQMTQTTSSLSASLGDRVTIRCRASQDITNYLNWYQQKPDGAVKLLISYTSILQSGVPSRFSGSGSGTDYSLTISNLEQGDVATYFCQQGSSLPWTFGGGTKLEIK",10.5 nM,0.00048 s⁻¹,45000 M⁻¹ s⁻¹,0.41 nM,1410 MFI,0.82 nM,6510 MFI,~1.13 nM,3860 MFI,–,–
"14A5.E8 (antibody, V domains shown, Purified murine mAb from a hybridoma subclone) VH: EVQLQESGAELVQPGASVRLSCKASGYTFTSYWINWVKQRPGQGLEWIGNIYPGSSIINYNENFKNRATLTVDTSSSTAYMQLSSLTSDDSAVYYCARRVVYLYFDYWGQGTTLTVSS VL: QIVLTQSPAIMSASPGEKVTMTCSASSSVSYMHWYQQKSGTSPKRWIYDTSKLASGVPARFSGSGSGTSYSLTISSMEAEDAATYYCQQWTSKSPTFGGGTKLEIK",15.1 nM,0.0019 s⁻¹,130000 M⁻¹ s⁻¹,~2.07 nM,415 MFI,1.25 nM,1780 MFI,~1.07 nM,1960 MFI,–,–
"4A4.A3 (antibody, V domains shown, Purified murine mAb from a hybridoma subclone) VH: QVTLKESGPGILQPSQTLSLTCSFSGFSLTTYGMGVGWIRQPSGKGLEWLANIWFNDNKYYNSTLKSRLTISKDTSNNQVFLKISSVDTTDTATYYCAQITTVVGTFDYWGQGSPLTVSP VL: RIVMTQSPTTMAASPGEKITITCSASSSISSIYLHWYQQKPGFSPKLLIFRTSDLASGVPPRFGGSGSGTSYSLTIGTMEAEDVATYYCQQGSSFPRTFGGGTKLEIK",7.3 nM,0.00082 s⁻¹,110000 M⁻¹ s⁻¹,0.72 nM,1020 MFI,1.07 nM,5570 MFI,3.29 nM,2350 MFI,–,–
